Values belong to the molecule of their own block, whether it stands above or below them.
Key:
[1] = biological target: T1, rVps1 (His-Vps1; yeast dynamin homolog Vps1) (Saccharomyces cerevisiae, UniProt P21576); test: GTPase assay, released Pi by malachite green; format: biochemical; conditions: read-out: % inhibition at 100 uM
T1 sequence (P21576 1-704): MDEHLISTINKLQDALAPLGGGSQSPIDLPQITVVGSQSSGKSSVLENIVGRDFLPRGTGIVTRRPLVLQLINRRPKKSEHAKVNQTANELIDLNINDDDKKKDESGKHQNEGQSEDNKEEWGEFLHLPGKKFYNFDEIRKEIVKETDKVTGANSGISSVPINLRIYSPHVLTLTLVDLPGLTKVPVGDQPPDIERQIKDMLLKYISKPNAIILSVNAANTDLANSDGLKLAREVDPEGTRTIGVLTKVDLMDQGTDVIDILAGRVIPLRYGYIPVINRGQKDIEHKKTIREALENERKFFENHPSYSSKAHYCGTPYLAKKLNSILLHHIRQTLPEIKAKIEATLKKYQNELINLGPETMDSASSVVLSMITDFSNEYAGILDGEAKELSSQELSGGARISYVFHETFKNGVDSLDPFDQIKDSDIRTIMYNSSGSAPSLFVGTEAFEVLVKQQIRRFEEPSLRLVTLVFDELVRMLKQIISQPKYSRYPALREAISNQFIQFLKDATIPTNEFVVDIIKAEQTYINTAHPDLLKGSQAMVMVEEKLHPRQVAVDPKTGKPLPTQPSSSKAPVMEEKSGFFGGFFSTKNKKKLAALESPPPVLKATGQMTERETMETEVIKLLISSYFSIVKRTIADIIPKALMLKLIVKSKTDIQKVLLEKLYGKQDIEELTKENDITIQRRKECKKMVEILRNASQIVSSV

recombinant Vps1 = biological target: T2, recombinant Vps1 (yeast, UniProt P21576 1-704); test: far-Western, overlay or dot blot
T2 sequence: T1 sequence (P21576 1-704)

- inhibition at 100 µM [1]: ~60%
Molecule: O=C(N/N=C/c1ccc(O)c(O)c1)c1cc2ccccc2cc1O [dynasore]

- binding result (recombinant Vps1): binds
B1: SNARE domain of Vam3 (190–252) (domain or fragment)
chain: TIIHQERSQQIGRIHTAVQEVNAIFHQLGSLVKEQGEQVTTIDENISHLHDNMQNANKQLTRA

- binding result (recombinant Vps1): binds
B2: Vam3 full-length (1–252) (domain or fragment)
chain: MSFFDIEAQSSKGNSQQEPQFSTNQKTKELSNLIETFAEQSRVLEKECTKIGSKRDSKELRYKIETELIPNCTSVRDKIESNILIHQNGKLSADFKNLKTKYQSLQQSYNQRKSLFPLKTPISPGTSKERKDIHPRTEAVRQDPESSYISIKVNEQSPLLHNEGQHQLQLQEEQEQQQQGLSQEELDFQTIIHQERSQQIGRIHTAVQEVNAIFHQLGSLVKEQGEQVTTIDENISHLHDNMQNANKQLTRA

Source: publication PMC3630463 (Nature communications, 2013)
